Measurements from paper PMC8155123, “A novel fungal metal-dependent α-L-arabinofuranosidase of family 54 glycoside hydrolase shows expanded substrate specificity” (Scientific Reports, 2021).

Key:
Assay in all cases: purified protein
Conditions in all cases: pH 6.5, 55 °C, 10 min, sodium phosphate, metal-dependent enzyme
purified protein [1] = substrate: C[C@H]1O[C@@H](Oc2ccc([N+](=O)[O-])cc2)[C@H](O)[C@@H](O)[C@H]1O
purified protein [2] = substrate: O=[N+]([O-])c1ccc(O[C@@H]2O[C@H](CO)[C@H](O)[C@H](O)[C@H]2O)cc1
purified protein [3] = substrate: O=[N+]([O-])c1ccc(O[C@H]2OC[C@@H](O)[C@@H](O)[C@@H]2O)cc1
purified protein [4] = substrate: O=[N+]([O-])c1ccc(O[C@H]2O[C@H](CO)[C@@H](O)[C@@H]2O)cc1

B1: ThABF (Trichoderma harzianum) (protein)
chain: GPCDIYSSGGTPCVAAHSTTRALYSAYTGPLYQVKRGSDGATTTISPLSSGVANAAAQDSFCAGTTCLITIIYDQSGRGNHLTQAPPGGFNGPESNGYDNLASAIGAPVTLNGQKAYGVFISPGTGYRNNAASGTAKGDAAEGMYAVLDGTHYNGACCFDYGNAETSSRDTGNGHMEAIYYGDSTVWGTGSGNGPWIMADLENGLFSGSAVHNNAGDPSISYRFVTAAVKGQPNQWAIRGGNSASGSLSTFYNGARPSASGYNPMSKEGAIILGIGGDNSNGAQGTFYEGVMTSGYPSDATENSVQANIVAAKYAVTSLTSGPALTTGSSVSLRATTACCTTRYITHSGSTVNTQVVSSSSATAPKQQASWTVRAGLGNSGCFSFESKDTPGSYIRHNNFVLLLNANDGSKQFAEDATFCPQAGLNGQGSSLRAWGYPTRYFRHYDNVLYVASNGGVHTFDATGSFNDDVSFVISASFA
Question: B1 was tested. Which Km (purified protein [1]) did it give?
Answer: 6.51 ± 1.00 mM

Question: And the kcat (purified protein [1])?
Answer: 35.7 s⁻¹

Question: What about the kcat/Km (purified protein [1]) of the same protein?
Answer: 5480 M⁻¹ s⁻¹

Question: And the Km (purified protein [2])?
Answer: 1.68 ± 0.12 mM

Question: And the kcat (purified protein [2])?
Answer: 35.5 s⁻¹

Question: What about the kcat/Km (purified protein [2]) of the same protein?
Answer: 21100 M⁻¹ s⁻¹

Question: And the Km (purified protein [3])?
Answer: 3.30 ± 0.16 mM

Question: And the kcat (purified protein [3])?
Answer: 13.4 s⁻¹

Question: And the kcat/Km (purified protein [3])?
Answer: 4070 M⁻¹ s⁻¹

Question: What about the Km (purified protein [4]) of the same protein?
Answer: 6.75 ± 3.24 mM

Question: And the kcat (purified protein [4])?
Answer: 1.61 s⁻¹

Question: And the kcat/Km (purified protein [4])?
Answer: 238 M⁻¹ s⁻¹
